ECL signal data for 3 molecules are collected here from US20120058906A1 (published 2012).

In test [1] the target is T1, rHuman Erythropoietin R/Fc Chimera, CF (R&D Systems Cat#963-ER) (human, UniProt P19235 25-250).
T1 construct: Purchased Fc chimera; also called EPO R/Fc; Epo R; not shown: Fc portion of the purchased chimera
T1 sequence: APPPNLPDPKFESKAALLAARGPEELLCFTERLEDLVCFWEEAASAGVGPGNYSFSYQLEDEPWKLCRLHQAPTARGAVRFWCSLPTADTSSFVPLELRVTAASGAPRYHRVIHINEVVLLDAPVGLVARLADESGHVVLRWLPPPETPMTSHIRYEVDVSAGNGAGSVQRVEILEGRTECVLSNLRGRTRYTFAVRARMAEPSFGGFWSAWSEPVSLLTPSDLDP
The experiment in a line: MSD ECL multi-spot plate, antigen immobilized; Fab 1000 nM; blank spot 427.

For test [2], the target named is T2, Recombinant Human DLL4 (R&D Systems Cat#1506-D4/CF) (human, UniProt Q9NR61 27-524).
T2 construct: Purchased recombinant protein; also called delta-like protein 4
The description is as above.

Test [3] concerns the target T3, rHuman ErbB2/Fc Chimera, CF (R&D Systems Cat#1129-ER) (human, UniProt P04626 23-652).
T3 construct: Purchased Fc chimera; also called HER2/neu; not shown: Fc portion of the purchased chimera
Described as above.

The target in test [4] is T4, rHuman EGF R/Fc Chimera, CF (R&D Systems Cat#344-ER) (human, UniProt P00533 25-645).
T4 construct: Purchased Fc chimera; not shown: Fc portion of the purchased chimera
The test is described as above.

Test [5] deals with T5, rHuman HGF R/c-MET/Fc Chimera, CF (R&D Systems Cat#358-MT/CF) (human, UniProt P08581 25-932).
T5 construct: Purchased Fc chimera; also called HGF R/Fc; not shown: Fc portion of the purchased chimera
Described as above.

The target of test [6] is T6, rHuman Notch-1/Fc Chimera, CF (R&D Systems Cat#3647-TK) (human, UniProt P46531 19-526).
T6 construct: Purchased Fc chimera; not shown: Fc portion of the purchased chimera
The test is described as above.

Test [7] deals with T7, rHuman CD44/Fc Chimera, CF (R&D Systems Cat#3660-CD) (human, UniProt P16070 21-220).
T7 construct: Purchased Fc chimera; not shown: Fc portion of the purchased chimera
The test is described as above.

The target in test [8] is T8, rHuman Erythropoietin R/Fc Chimera, CF (R&D Systems Cat#963-ER) (human, UniProt P19235 25-250).
T8 construct: Bought Fc chimera; also called EPO R/Fc; Epo R; Fc part of the bought chimera not given
T8 sequence: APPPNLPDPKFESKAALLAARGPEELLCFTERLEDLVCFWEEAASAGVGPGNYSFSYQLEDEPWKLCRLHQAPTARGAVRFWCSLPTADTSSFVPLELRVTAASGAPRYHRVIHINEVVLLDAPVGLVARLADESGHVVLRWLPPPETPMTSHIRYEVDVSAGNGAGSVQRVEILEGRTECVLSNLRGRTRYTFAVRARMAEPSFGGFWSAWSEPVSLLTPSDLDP
The experiment in a line: ECL (MSD Multi-Spot) binding assay, antigen spotted on plate; Fab 51 nM; blank spot 335.

Test [9] deals with T9, Recombinant Human DLL4 (R&D Systems Cat#1506-D4/CF) (human, UniProt Q9NR61 27-524).
T9 construct: Bought recombinant protein; also called delta-like protein 4; rHuman DLL4
Described as above.

Test [10] addresses T10, rHuman ErbB2/Fc Chimera, CF (R&D Systems Cat#1129-ER) (human, UniProt P04626 23-652).
T10 construct: Bought Fc chimera; also called HER2/neu; human epidermal growth factor 2 receptor; Fc part of the bought chimera not given
Described as above.

The target of test [11] is T11, rHuman EGF R/Fc Chimera, CF (R&D Systems Cat#344-ER) (human, UniProt P00533 25-645).
T11 construct: Bought Fc chimera; also called epidermal growth factor receptor; Fc part of the bought chimera not given
The test is described as above.

For test [12], the target named is T12, rHuman CD44/Fc Chimera, CF (R&D Systems Cat#3660-CD) (human, UniProt P16070 21-220).
T12 construct: Bought Fc chimera; Fc part of the bought chimera not given
Described as above.

Test [13] concerns the target T13, rHuman IGF-1 sR (IGF-1 sR), CF (R&D Systems Cat#391-GR) (human, UniProt P08069 31-932).
T13 construct: Bought soluble receptor; also called insulin-like growth factor-1 soluble receptor; IGF-R1
Described as above.

In test [14] the target is T8, rHuman Erythropoietin R/Fc Chimera, CF …. The experiment in a line: ECL (MSD Multi-Spot) binding assay, antigen spotted on plate; Fab 120 nM; blank spot 363.
Test [15] concerns the target T9, Recombinant Human DLL4 (R&D Systems …). The test is described as above.
For test [16], the target named is T14, rHuman Notch-1/Fc Chimera, CF (R&D Systems Cat#3647-TK) (human, UniProt P46531 19-526).
T14 construct: Bought Fc chimera; Fc part of the bought chimera not given
Described as above.

The target of test [17] is T12, rHuman CD44/Fc Chimera, CF (R&D Systems …). The test is described as above.
Test [18] has as its target T15, rHuman P-Cadherin/Fc Chimera, CF (R&D Systems Cat#861-PC) (human, UniProt P22223 108-654).
T15 construct: Bought Fc chimera; also called CDH3; Fc part of the bought chimera not given
Described as above.
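Also: blank spot per well as comparator with Hit at signal to blank ratio of 4 or more.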

B1: Fab VH5-51_IGHD5-18*01>3_IGHJ4*01_G100R & V3-4_IGLJ1*01 (Fab, V domains shown)
VH: EVQLVQSGAEVKKPGESLKISCKGSGYSFTSYWIGWVRQMPGKGLEWMGIIYPGDSDTRYSPSFQGQVTISADKSISTAYLQWSSLKASDTAMYYCARRRYSYGYDYFDYWGQGTLVTVSS
VL: QTVVTQEPSFSVSPGGTVTLTCGLSSGSVSTSYYPSWYQQTPGQAPRTLIYSTNTRSSGVPDRFSGSILGNKAALTITGAQADDESDYYCVLYMGSGISYVFGTGTKVTVL
notes: It was expressed as a Fab: CH1 with tags from Plasmid A and lambda CL from Plasmid E; also called Fab No. 23
On to B1, for which the ECL signal in [1] worked out at 666 ECL signal; in test [2], 23400 ECL signal; in test [3] it was 945 ECL signal; in test [4], 721 ECL signal; in test [5], 778 ECL signal; in [6], 761 ECL signal. Further, the ECL signal in [7] was found to be 559 ECL signal.

B2: Fab VH5-51_IGHD5-18*01>3_IGHJ4*01 & V3-4_IGLJ1*01 (Fab, V domains shown)
VH: EVQLVQSGAEVKKPGESLKISCKGSGYSFTSYWIGWVRQMPGKGLEWMGIIYPGDSDTRYSPSFQGQVTISADKSISTAYLQWSSLKASDTAMYYCARRGYSYGYDYFDYWGQGTLVTVSS
VL: QTVVTQEPSFSVSPGGTVTLTCGLSSGSVSTSYYPSWYQQTPGQAPRTLIYSTNTRSSGVPDRFSGSILGNKAALTITGAQADDESDYYCVLYMGSGISYVFGTGTKVTVL
notes: Tested as a Fab made in E. coli; also called IGHV5-51*03
In the case of B2, the ECL signal in test [8] was determined as 750; in test [9] it was 17000; in test [10], 1250; in test [11], 816; in test [12], 651; in [13], 1050.

B3: Fab VH6-1_IGHD3-3*01_IGHJ4*01 & V4-3_IGLJ4*01 (Fab, V domains shown)
VH: QVQLQQSGPGLVKPSQTLSLTCAISGDSVSSNSAAWNWIRQSPSRGLEWLGRTYYRSKWYNDYAVSVKSRITINPDTSKNQFSLQLNSVTPEDTAVYYCAREYYDFWSGYYTDYFDYWGQGTLVTVSS
VL: QPVLTQPTSLSASPGASARLTCTLRSGINLGSYRIFWYQQKPESPPRYLLSYYSDSSKHQGSGVPSRFSGSKDASSNAGILVISGLQSEDEADYYCMIWHSSASFVFGGGTQLIIL
notes: Tested as a Fab made in E. coli; also called IGHV6-1*01
Regarding B3, the ECL signal in test [14] was determined as 431; in test [15], 938; in [16], 472; in test [17] it was 442; in test [18], 450.
